Data from publication PMC5529715.

Target: MBP-A3H hap II (APOBEC3H haplotype II, splicing variant SV182, MBP fusion) (human)
Experiment: SEC-MALS

MBP-A3H hap II (APOBEC3H haplotype II, splicing variant SV182, MBP fusion) (enzyme)
stoichiometry N: 14 to 15 monomers
